Positions count from the first letter of the chain named.
B1: hBDI-9E8.11 (antibody, V domains shown)
VH: EVQLVESGGGLVQPGGSLRLSCAFSGFSLSTYGMGVGWIRQAPGKGLEWLANIWWDDDKYYNPSLKNRLTISKDTSKNQAYLQINSLRAEDTAVYYCARIESIGTTYSFDYWGQGTLVTVSS
VL: DFVLTQSPDSLAVSLGERATINCERSSGDIGDSYVSWYQQKPGQPPKNVIYADDQRPSGVPDRFSGSGSGNSASLTISSLQAEDVAVYFCQSYDINIDIVFGGGTKVEIK
notes: Humanized IgG
B2: hBDI-5H1.9 (antibody, V domains shown)
VH: EVTLRESGPALVKPTQTLTLTCTFSGFSLSTFGMGVGWIRQPPGKALEWLANIWWDDDKYYNPSLKNRLTISKDTSKNQAVLTITNMDPVDTATYYCARISTGISSYYVMDAWGQGTTVTVSS
VL: B1 VL with S33T, A52G, D53N, S74T, I95S, N96D
notes: Humanized IgG
B3: hBDI-9E8.12 (antibody, V domains shown)
VH: B1 VH
VL: DFQLTQSPSSLSASVGDRVTITCERSSGDIGDSYVSWYQQKPGKAPKNVIYADDQRPSGVPSRFSGSGSGNSASLTISSLQPEDFATYYCQSYDINIDIVFGQGTKVEIK
notes: Humanized IgG
B4: hBDI-5H1.11 (antibody, V domains shown)
VH: EVQLVESGGGLVQPGGSLRLSCAFSGFSLSTFGMGVGWIRQAPGKGLEWLANIWWDDDKYYNPSLKNRLTISKDTSKNQAYLQINSLRAEDTAVYYCARISTGISSYYVMDAWGQGTLVTVSS
VL: B1 VL with S33T, A52G, D53N, S74T, I95S, N96D
notes: Humanized IgG
B5: hBDI-5H1.12 (antibody, V domains shown)
VH: B4 VH
VL: B3 VL with S33T, A52G, D53N, S74T, Y89F, I95S, N96D
notes: Humanized IgG
B6: hBDI-5H1.1 (antibody, V domains shown)
VH: B2 VH with A80V, I84M
VL: NFMLTQPHSVSESPGKTVTISCERSSGDIGDTYVSWYQQRPGSSPTTVIYGNDQRPSGVPDRFSGSIDSSSNSASLTISGLKTEDEADYYCQSYDSDIDIVFGGGTKLTVL
notes: Humanized IgG
B7: hBDI-5H1.10 (antibody, V domains shown)
VH: B2 VH
VL: B3 VL with S33T, A52G, D53N, S74T, Y89F, I95S, N96D
notes: Humanized IgG
B8: hBDI-5H1.6 (antibody, V domains shown)
VH: B2 VH with R5K
VL: B6 VL with S44P, T47N, Y90F
notes: Humanized IgG
B9: hBDI-5H1.2 (antibody, V domains shown)
VH: B2 VH with A80V, I84M
VL: B6 VL with S44P, T47N, Y90F
notes: Humanized IgG
B10: hBDI-5H1.5 (antibody, V domains shown)
VH: B2 VH with R5K
VL: B6 VL
notes: Humanized IgG
B11: hBDI-9E8.7 (antibody, V domains shown)
VH: EVTLRESGPALVKPTQTLTLTCTFSGFSLSTYGMGVGWIRQPPGKGLEWLANIWWDDDKYYNPSLKNRLTISKDTSKNQAVLTITNMDPVDTATYYCARIESIGTTYSFDYWGQGTMVTVSS
VL: EIVLTQSPGTLSLSPGERATLSCERSSGDIGDSYVSWYQQKPGQAPRLLIYADDQRPSGIPDRFSGSGSGTDFTLTISRLEPEDFAVYYCQSYDINIDIVFGGGTKVEIK
notes: Humanized IgG
B12: hBDI-9E8.9 (antibody, V domains shown)
VH: B11 VH with G46A, M117T
VL: B1 VL
notes: Humanized IgG
B13: hBDI-5H1.3 (antibody, V domains shown)
VH: B2 VH with A80V, I84M
VL: B11 VL with S33T, A52G, D53N, I95S, N96D
notes: Humanized IgG
B14: hBDI-9E8.10 (antibody, V domains shown)
VH: B11 VH with G46A, M117T
VL: B3 VL
notes: Humanized IgG
B15: hBDI-5H1.4 (antibody, V domains shown)
VH: B2 VH with A80V, I84M
VL: B11 VL with I2F, S33T, L49V, A52G, D53N, I95S, N96D
notes: Humanized IgG
B16: 9E8.4-SS-4G8.3 DVD-Ig (PR-1563990) (bispecific antibody, human IgG1, kappa, L234A L235A)
heavy: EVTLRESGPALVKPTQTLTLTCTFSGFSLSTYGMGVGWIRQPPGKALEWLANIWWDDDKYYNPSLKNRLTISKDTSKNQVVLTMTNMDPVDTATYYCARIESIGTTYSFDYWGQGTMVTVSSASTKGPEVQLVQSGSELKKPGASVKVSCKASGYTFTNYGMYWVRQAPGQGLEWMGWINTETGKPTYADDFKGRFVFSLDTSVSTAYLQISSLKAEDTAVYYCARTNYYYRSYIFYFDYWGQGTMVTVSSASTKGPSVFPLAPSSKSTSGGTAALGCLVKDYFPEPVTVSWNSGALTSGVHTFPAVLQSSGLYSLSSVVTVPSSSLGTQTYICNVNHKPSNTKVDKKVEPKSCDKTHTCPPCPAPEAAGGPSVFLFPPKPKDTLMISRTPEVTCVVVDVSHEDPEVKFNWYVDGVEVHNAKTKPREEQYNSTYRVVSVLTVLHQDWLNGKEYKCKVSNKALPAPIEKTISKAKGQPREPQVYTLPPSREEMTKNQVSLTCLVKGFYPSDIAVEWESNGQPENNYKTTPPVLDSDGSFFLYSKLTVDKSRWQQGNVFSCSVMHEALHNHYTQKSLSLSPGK
light: EFVLTQSPGTLSLSPGERATLSCERSSGDIGDSYVSWYQQKPGQAPRLVIYADDQRPSGIPDRFSGSGSGTDFTLTISRLEPEDFAVYYCQSYDINIDIVFGGGTKVEIKGTVAAPDTVLTQSPATLSLSPGERATLSCRASESVSTHMHWYQQKPGQAPRLLIYGASNLESGVPARFSGSGSGTDFTLTISSLEPEDFAVYFCQQSWNDPFTFGQGTKLEIKRTVAAPSVFIFPPSDEQLKSGTASVVCLLNNFYPREAKVQWKVDNALQSGNSQESVTEQDSKDSTYSLSSTLTLSKADYEKHKVYACEVTHQGLSSPVTKSFNRGEC
B17: 9E8.4-LS-4G8.3 DVD-Ig (PR-1564009) (bispecific antibody, human IgG1, kappa, L234A L235A)
heavy: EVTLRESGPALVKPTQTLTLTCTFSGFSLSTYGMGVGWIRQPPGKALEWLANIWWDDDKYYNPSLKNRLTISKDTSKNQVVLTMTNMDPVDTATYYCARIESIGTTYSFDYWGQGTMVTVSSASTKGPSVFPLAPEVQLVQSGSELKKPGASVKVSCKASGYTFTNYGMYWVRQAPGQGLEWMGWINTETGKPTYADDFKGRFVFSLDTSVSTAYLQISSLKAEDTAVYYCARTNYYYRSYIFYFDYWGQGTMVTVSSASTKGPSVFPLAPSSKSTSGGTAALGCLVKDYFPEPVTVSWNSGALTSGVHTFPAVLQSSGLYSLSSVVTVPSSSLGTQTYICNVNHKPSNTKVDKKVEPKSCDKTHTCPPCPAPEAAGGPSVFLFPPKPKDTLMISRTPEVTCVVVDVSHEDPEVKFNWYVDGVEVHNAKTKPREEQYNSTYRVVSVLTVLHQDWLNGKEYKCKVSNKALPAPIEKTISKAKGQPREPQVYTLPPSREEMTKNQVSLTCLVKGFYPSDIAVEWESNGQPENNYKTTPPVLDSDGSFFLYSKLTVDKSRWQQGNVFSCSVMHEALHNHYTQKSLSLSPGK
light: B16 light
B18: 9E8.4-SL-4G8.3 DVD-Ig (PR-1563998) (bispecific antibody, human IgG1, kappa, L234A L235A)
heavy: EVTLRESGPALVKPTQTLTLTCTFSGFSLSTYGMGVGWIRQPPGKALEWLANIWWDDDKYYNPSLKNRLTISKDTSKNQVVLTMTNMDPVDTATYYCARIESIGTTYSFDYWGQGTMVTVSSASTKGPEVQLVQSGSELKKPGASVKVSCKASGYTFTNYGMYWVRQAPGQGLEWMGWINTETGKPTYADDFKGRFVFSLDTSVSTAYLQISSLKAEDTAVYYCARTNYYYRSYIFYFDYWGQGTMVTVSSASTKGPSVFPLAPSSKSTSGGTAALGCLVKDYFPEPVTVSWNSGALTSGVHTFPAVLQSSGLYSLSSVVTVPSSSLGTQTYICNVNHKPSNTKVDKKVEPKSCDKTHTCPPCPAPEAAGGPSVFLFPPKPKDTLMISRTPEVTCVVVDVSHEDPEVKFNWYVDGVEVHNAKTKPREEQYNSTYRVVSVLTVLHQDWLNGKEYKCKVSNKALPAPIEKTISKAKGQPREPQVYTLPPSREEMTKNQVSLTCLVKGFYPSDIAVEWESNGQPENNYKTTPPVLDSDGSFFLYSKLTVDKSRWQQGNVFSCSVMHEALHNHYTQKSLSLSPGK
light: EFVLTQSPGTLSLSPGERATLSCERSSGDIGDSYVSWYQQKPGQAPRLVIYADDQRPSGIPDRFSGSGSGTDFTLTISRLEPEDFAVYYCQSYDINIDIVFGGGTKVEIKGTVAAPSVFIFPPDTVLTQSPATLSLSPGERATLSCRASESVSTHMHWYQQKPGQAPRLLIYGASNLESGVPARFSGSGSGTDFTLTISSLEPEDFAVYFCQQSWNDPFTFGQGTKLEIKRTVAAPSVFIFPPSDEQLKSGTASVVCLLNNFYPREAKVQWKVDNALQSGNSQESVTEQDSKDSTYSLSSTLTLSKADYEKHKVYACEVTHQGLSSPVTKSFNRGEC

The binders below were run against T1, Human PDGF-BB (human, UniProt P01127 82-190) (assay: SPR (Biacore), antibody captured via anti-human Fc, antigen in solution).
T1 construct: Recombinant human PDGF-BB, a homodimer of two B chains; also called hPDGF-BB; huPDGF-BB
Method: For example, approximately 9000 RU of goat anti-human Fc specific polyclonal antibody (Thermo Fisher Scientific Inc., Rockford, Ill.) diluted in 10 mM sodium acetate (pH 4.5) is directly immobilized across a CM5 research grade biosensor chip using a standard amine coupling kit according to manufacturer's instructions and procedures at 25 μg/ml. Unreacted moieties on the biosensor surface were blocked with ethanolamine. For kinetic analysis, rate equations derived from the 1:1 Langmuir binding model were fitted simultaneously to multiple antigen injections (using global fit analysis) with the use of Scrubber 2 (BioLogic Software), Biacore Biaevaluation 4.0.1 software or Biacore T100 Evaluation software. Purified antibodies or DVD-Ig molecules were diluted in running buffer for capture across goat anti-human Fc reaction surfaces. Antibodies or DVD-Ig molecules to be captured as a ligand (1 μg/ml) were injected over reaction matrices at a flow rate of 10 μl/minute. During the assay, all measurements were referenced against the capture surface alone (i.e., with no captured antibody or DVD-Ig molecule). […] The equilibrium dissociation constant KD (M) of the reaction between antibodies and the target antigen was then calculated from the kinetic rate constants by the following formula: KD=Koff/Kₒₙ. Binding was recorded as a function of time and kinetic rate constants were calculated.

T1 sequence (P01127 82-190 limits assumed): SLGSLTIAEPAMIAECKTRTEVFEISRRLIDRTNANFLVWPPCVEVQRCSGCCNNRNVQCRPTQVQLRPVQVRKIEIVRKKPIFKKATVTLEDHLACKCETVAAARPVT

Binder | Kd [nM] | kon [M⁻¹ s⁻¹]
B1 | ≤ 0.074 | ≥ 1e+07
B2 | ≤ 0.31 | ≥ 1e+07
B3 | ≤ 0.21 | ≥ 1e+07
B4 | ≤ 0.37 | ≥ 1e+07
B5 | ≤ 0.23 | ≥ 1e+07
B6 | ≤ 0.41 | ≥ 1e+07
B7 | ≤ 0.23 | ≥ 1e+07
B8 | ≤ 0.082 | ≥ 1e+07
B9 | ≤ 0.19 | ≥ 1e+07
B10 | ≤ 0.17 | ≥ 1e+07
B11 | ≤ 0.045 | ≥ 1e+07
B12 | ≤ 0.15 | ≥ 1e+07
B13 | ≤ 0.45 | ≥ 1e+07
B14 | ≤ 0.18 | ≥ 1e+07
B15 | ≤ 1.4 | ≥ 1e+07

The binders below were run against recombinant human PDGF-BB (human, UniProt P01127 82-190) (assay: cell-based or functional assay).
Sequence of recombinant human PDGF-BB (P01127 82-190 limits assumed): as above

Binder | NIH-3T3 hPDGF-BB Potency IC50 [nM]
B16 | 0.094
B17 | 0.104
B18 | 0.091
